Measurements: patent US20250262210A1 (TRUSTEES OF COLUMBIA UNIVERSITY IN THE CITY OF NEW YORK, published 2025)

T1: LZTR1 R810W-FLAG (human, UniProt Q8N653 1-840)
T1 construct: Stably expressed in U87 cells by lentivirus; also called LZTR1-FLAG-R810W; LZTR1 RW; not shown: FLAG tag
T1 sequence (looked up): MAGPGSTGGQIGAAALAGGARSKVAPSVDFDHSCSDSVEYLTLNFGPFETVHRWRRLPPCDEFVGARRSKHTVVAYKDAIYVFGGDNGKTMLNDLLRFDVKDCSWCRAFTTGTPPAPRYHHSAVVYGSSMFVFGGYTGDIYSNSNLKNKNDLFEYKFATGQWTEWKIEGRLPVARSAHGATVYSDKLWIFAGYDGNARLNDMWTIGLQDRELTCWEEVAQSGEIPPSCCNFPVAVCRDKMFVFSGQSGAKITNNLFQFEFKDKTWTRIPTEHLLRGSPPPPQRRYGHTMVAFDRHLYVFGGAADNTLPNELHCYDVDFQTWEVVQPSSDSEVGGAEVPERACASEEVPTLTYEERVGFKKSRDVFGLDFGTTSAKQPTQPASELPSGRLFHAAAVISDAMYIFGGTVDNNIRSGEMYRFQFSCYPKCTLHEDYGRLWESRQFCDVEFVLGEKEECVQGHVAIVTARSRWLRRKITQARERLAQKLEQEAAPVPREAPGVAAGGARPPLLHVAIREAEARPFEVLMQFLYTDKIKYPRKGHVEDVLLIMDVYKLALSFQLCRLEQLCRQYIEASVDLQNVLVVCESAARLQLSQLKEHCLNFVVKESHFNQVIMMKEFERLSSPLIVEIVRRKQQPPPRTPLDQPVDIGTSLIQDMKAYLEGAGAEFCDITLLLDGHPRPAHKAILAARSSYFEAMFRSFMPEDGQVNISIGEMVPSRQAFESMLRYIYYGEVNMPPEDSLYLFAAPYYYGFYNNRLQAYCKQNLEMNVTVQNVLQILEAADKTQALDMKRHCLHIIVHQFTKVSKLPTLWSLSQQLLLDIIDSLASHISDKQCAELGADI

T2: LZTR1-FLAG (human, UniProt Q8N653 1-840)
T2 construct: Expressed in HEK 293T, HeLa or U87 cells; used as cell lysate; also called LZTR1 wild type-FLAG; LZTR1 WT; not shown: FLAG tag at the C-terminus
T2 sequence (looked up): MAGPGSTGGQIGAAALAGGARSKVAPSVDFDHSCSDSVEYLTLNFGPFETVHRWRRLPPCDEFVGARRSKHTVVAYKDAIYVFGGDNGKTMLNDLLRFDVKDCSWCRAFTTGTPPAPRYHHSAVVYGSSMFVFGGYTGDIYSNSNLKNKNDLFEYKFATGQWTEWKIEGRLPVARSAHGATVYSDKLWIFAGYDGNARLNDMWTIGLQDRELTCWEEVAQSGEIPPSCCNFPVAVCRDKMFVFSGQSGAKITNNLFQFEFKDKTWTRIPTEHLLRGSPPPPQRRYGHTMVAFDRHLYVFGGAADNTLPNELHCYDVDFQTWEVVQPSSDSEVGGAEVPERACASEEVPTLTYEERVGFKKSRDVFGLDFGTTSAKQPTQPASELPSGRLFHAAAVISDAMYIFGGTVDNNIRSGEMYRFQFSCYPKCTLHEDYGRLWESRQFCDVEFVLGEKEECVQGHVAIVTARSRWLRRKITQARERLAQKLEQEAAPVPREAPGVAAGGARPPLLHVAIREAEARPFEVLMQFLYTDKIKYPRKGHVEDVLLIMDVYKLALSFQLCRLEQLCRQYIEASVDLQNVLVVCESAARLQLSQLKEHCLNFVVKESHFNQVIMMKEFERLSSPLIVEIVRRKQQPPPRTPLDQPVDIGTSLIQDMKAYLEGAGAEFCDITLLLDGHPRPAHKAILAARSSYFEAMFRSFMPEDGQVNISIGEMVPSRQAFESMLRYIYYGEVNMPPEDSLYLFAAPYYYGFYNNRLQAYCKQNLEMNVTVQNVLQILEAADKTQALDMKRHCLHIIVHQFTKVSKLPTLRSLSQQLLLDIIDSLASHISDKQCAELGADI


Key:
LZTR1 R810W-FLAG = target: T1, LZTR1 R810W-FLAG; assay: IP/MS, LZTR1 R810W-FLAG, U87
Method in brief: (§1)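 Extracted peptides in 3% acetonitrile/0.1% formic acid ran on a 50 cm C18 column into an Orbitrap Fusion, with MaxQuant identification and spectral counting.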

LZTR1-FLAG = target: T2, LZTR1-FLAG; assay: IP/MS, LZTR1 wild type-FLAG, U87
Method in brief: as §1

| binding result (LZTR1 R810W-FLAG) | binding result (LZTR1-FLAG) | Binder |
| --- | --- | --- |
| binds | binds | SYDE1 (other, human, UniProt Q6ZW31 1-735, looked up) MAEPLLRKTFSRLRGREKLPRKKSDAKERGHPAQRPEPSPPEPEPQAPEGSQAGAEGPSSPEASRSPARGAYLQSLEPSSRRWVLGGAKPAEDTSLGPGVPGTGEPAGEIWYNPIPEEDPRPPAPEPPGPQPGSAESEGLAPQGAAPASPPTKASRTKSPGPARRLSIKMKKLPELRRRLSLRGPRAGRERERAAPAGSVISRYHLDSSVGGPGPAAGPGGTRSPRAGYLSDGDSPERPAGPPSPTSFRPYEVGPAARAPPAALWGRLSLHLYGLGGLRPAPGATPRDLCCLLQVDGEARARTGPLRGGPDFLRLDHTFHLELEAARLLRALVLAWDPGVRRHRPCAQGTVLLPTVFRGCQAQQLAVRLEPQGLLYAKLTLSEQQEAPATAEPRVFGLPLPLLVERERPPGQVPLIIQKCVGQIERRGLRVVGLYRLCGSAAVKKELRDAFERDSAAVCLSEDLYPDINVITGILKDYLRELPTPLITQPLYKVVLEAMARDPPNRVPPTTEGTRGLLSCLPDVERATLTLLLDHLRLVSSFHAYNRMTPQNLAVCFGPVLLPARQAPTRPRARSSGPGLASAVDFKHHIEVLHYLLQSWPDPRLPRQSPDVAPYLRPKRQPPLHLPLADPEVVTRPRGRGGPESPPSNRYAGDWSVCGRDFLPCGRDFLSGPDYDHVTGSDSEDEDEEVGEPRVTGDFEDDFDAPFNPHLNLKDFDALILDLERELSKQINVCL |
| binds | binds | SMS (other, human, UniProt P52788 2-366, looked up) AAARHSTLDFMLGAKADGETILKGLQSIFQEQGMAESVHTWQDHGYLATYTNKNGSFANLRIYPHGLVLLDLQSYDGDAQGKEEIDSILNKVEERMKELSQDSTGRVKRLPPIVRGGAIDRYWPTADGRLVEYDIDEVVYDEDSPYQNIKILHSKQFGNILILSGDVNLAESDLAYTRAIMGSGKEDYTGKDVLILGGGDGGILCEIVKLKPKMVTMVEIDQMVIDGCKKYMRKTCGDVLDNLKGDCYQVLIEDCIPVLKRYAKEGREFDYVINDLTAVPISTSPEEDSTWEFLRLILDLSMKVLKQDGKYFTQGNCVNLTEALSLYEEQLGRLYCPVEFSKEIVCVPSYLELWVFYTVWKKAKP |
| binds | binds | TBK1 (other, human, UniProt Q9UHD2 1-729, looked up) MQSTSNHLWLLSDILGQGATANVFRGRHKKTGDLFAIKVFNNISFLRPVDVQMREFEVLKKLNHKNIVKLFAIEEETTTRHKVLIMEFCPCGSLYTVLEEPSNAYGLPESEFLIVLRDVVGGMNHLRENGIVHRDIKPGNIMRVIGEDGQSVYKLTDFGAARELEDDEQFVSLYGTEEYLHPDMYERAVLRKDHQKKYGATVDLWSIGVTFYHAATGSLPFRPFEGPRRNKEVMYKIITGKPSGAISGVQKAENGPIDWSGDMPVSCSLSRGLQVLLTPVLANILEADQEKCWGFDQFFAETSDILHRMVIHVFSLQQMTAHKIYIHSYNTATIFHELVYKQTKIISSNQELIYEGRRLVLEPGRLAQHFPKTTEENPIFVVSREPLNTIGLIYEKISLPKVHPRYDLDGDASMAKAITGVVCYACRIASTLLLYQELMRKGIRWLIELIKDDYNETVHKKTEVVITLDFCIRNIEKTVKVYEKLMKINLEAAELGEISDIHTKLLRLSSSQGTIETSLQDIDSRLSPGGSLADAWAHQEGTHPKDRNVEKLQVLLNCMTEIYYQFKKDKAERRLAYNEEQIHKFDKQKLYYHATKAMTHFTDECVKKYEAFLNKSEEWIRKMLHLRKQLLSLTNQCFDIEEEVSKYQEYTNELQETLPQKMFTASSGIKHTMTPIYPSSNTLVEMTLGMKKLKEEMEGVVKELAENNHILERFGSLTMDGGLRNVDCL |

The next lines start with the binder.

| Binder | binding result (LZTR1 R810W-FLAG) | binding result (LZTR1-FLAG) |
| --- | --- | --- |
| SMG9 (other, human, UniProt Q9H0W8 2-520, looked up) SESGHSQPGLYGIERRRRWKEPGSGGPQNLSGPGGRERDYIAPWERERRDASEETSTSVMQKTPIILSKPPAERSKQPPPPTAPAAPPAPAPLEKPIVLMKPREEGKGPVAVTGASTPEGTAPPPPAAPAPPKGEKEGQRPTQPVYQIQNRGMGTAAPAAMDPVVGQAKLLPPERMKHSIKLVDDQMNWCDSAIEYLLDQTDVLVVGVLGLQGTGKSMVMSLLSANTPEEDQRTYVFRAQSAEMKERGGNQTSGIDFFITQERIVFLDTQPILSPSILDHLINNDRKLPPEYNLPHTYVEMQSLQIAAFLFTVCHVVIVVQDWFTDLSLYRFLQTAEMVKPSTPSPSHESSSSSGSDEGTEYYPHLVFLQNKARREDFCPRKLRQMHLMIDQLMAHSHLRYKGTLSMLQCNVFPGLPPDFLDSEVNLFLVPFMDSEAESENPPRAGPGSSPLFSLLPGYRGHPSFQSLVSKLRSQVMSMARPQLSHTILTEKNWFHYAARIWDGVRKSSALAEYSRLLA | binds | binds |
| TELO2 (other, human, UniProt Q9Y4R8 1-837, looked up) MEPAPSEVRLAVREAIHALSSSEDGGHIFCTLESLKRYLGEMEPPALPREKEEFASAHFSPVLRCLASRLSPAWLELLPHGRLEELWASFFLEGPADQAFLVLMETIEGAAGPSFRLMKMARLLARFLREGRLAVLMEAQCRQQTQPGFILLRETLLGKVVALPDHLGNRLQQENLAEFFPQNYFRLLGEEVVRVLQAVVDSLQGGLDSSVSFVSQVLGKACVHGRQQEILGVLVPRLAALTQGSYLHQRVCWRLVEQVPDRAMEAVLTGLVEAALGPEVLSRLLGNLVVKNKKAQFVMTQKLLFLQSRLTTPMLQSLLGHLAMDSQRRPLLLQVLKELLETWGSSSAIRHTPLPQQRHVSKAVLICLAQLGEPELRDSRDELLASMMAGVKCRLDSSLPPVRRLGMIVAEVVSARIHPEGPPLKFQYEEDELSLELLALASPQPAGDGASEAGTSLVPATAEPPAETPAEIVDGGVPQAQLAGSDSDLDSDDEFVPYDMSGDRELKSSKAPAYVRDCVEALTTSEDIERWEAALRALEGLVYRSPTATREVSVELAKVLLHLEEKTCVVGFAGLRQRALVAVTVTDPAPVADYLTSQFYALNYSLRQRMDILDVLTLAAQELSRPGCLGRTPQPGSPSPNTPCLPEAAVSQPGSAVASDWRVVVEERIRSKTQRLSKGGPRQGPAGSPSRFNSVAGHFFFPLLQRFDRPLVTFDLLGEDQLVLGRLAHTLGALMCLAVNTTVAVAMGKALLEFVWALRFHIDAYVRQGLLSAVSSVLLSLPAARLLEDLMDELLEARSWLADVAEKDPDEDCRTLALRALLLLQRLKNRLLPPASP | binds | binds |
| SPRYD3 (other, human, UniProt Q8NCJ5 1-442, looked up) MRRTRRPRFVLMNKMDDLNLHYRFLNWRRRIREIREVRAFRYQERFKHILVDGDTLSYHGNSGEVGCYVASRPLTKDSNYFEVSIVDSGVRGTIAVGLVPQYYSLDHQPGWLPDSVAYHADDGKLYNGRAKGRQFGSKCNSGDRIGCGIEPVSFDVQTAQIFFTKNGKRVGSTIMPMSPDGLFPAVGMHSLGEEVRLHLNAELGREDDSVMMVDSYEDEWGRLHDVRVCGTLLEYLGKGKSIVDVGLAQARHPLSTRSHYFEVEIVDPGEKCYIALGLARKDYPKNRHPGWSRGSVAYHADDGKIFHGSGVGDPFGPRCYKGDIMGCGIMFPRDYILDSEGDSDDSCDTVILSPTARAVRNVRNVMYLHQEGEEEEEEEEEEEDGEEIEPEHEGRKVVVFFTRNGKIIGKKDAVVPSGGFFPTIGMLSCGEKVKVDLHPLSG | binds | binds |
